Patent publication US20180155451A1 (published 2018)
Changes are numbered by the printed parent chain. In names and notes the source's numbering stands. Blank lines part the entries; values can stand above or below the binder they belong to.

Columns and labels:
[1] = biological target: T1, FcγRIIIa extracellular domain with C-terminal His tag (human, UniProt P08637 17-208); experiment: SPR (Biacore), antibody captured, FcγRIIIa as analyte, 1:1 Langmuir kinetic fit
T1 construct: extracellular domain; also called FcgRIIIa; CD16A
T1 sequence (P08637 17-208): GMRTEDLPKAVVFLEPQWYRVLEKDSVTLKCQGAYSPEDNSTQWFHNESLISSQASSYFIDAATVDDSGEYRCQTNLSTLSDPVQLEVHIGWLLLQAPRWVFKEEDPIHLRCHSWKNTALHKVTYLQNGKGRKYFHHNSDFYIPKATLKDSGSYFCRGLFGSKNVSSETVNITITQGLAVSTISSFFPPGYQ
Description: The prepared antibodies were compared for the FcγRIIIa-binding activity using, as an indicator, KD for FcγRIIIa that was determined according to the method described in Reference Example 2.
(§1) Analysis of interaction between objective antibody and the FcγR was carried out using Biacore T100 (GE Healthcare). HBS-EP+ (GE Healthcare) was used as the running buffer, and the measurement temperature was set to 25° C. Chips produced by immobilizing the antigen peptide by the amine coupling method to a Series S Sencor Chip CM5 (GE Healthcare), or alternatively, chips produced by allowing preliminarily biotinylated antigen peptides to interact with and immobilize onto a Series S Sensor Chip SA (certified) (GE Healthcare) were used. Antibodies of interest were captured onto an antigen peptide-immobilized chip, and allowed to interact to each FcγR diluted with running buffer. To regenerate and repeatedly use the chip, the antibodies captured on the chip were washed off by reacting 10 mM glycine-HCl, pH 1.5.
(§2) The FcγR-binding activity of each antibody was assessed primarily using as an indicator the FcγR-binding activity and dissociation constant for FcγR.

[2] = biological target: T1, FcγRIIIa extracellular domain with …; experiment: SPR (Biacore), ratio of KD values for FcγRIIIa
From the text: GpH7-A57 (SEQ ID NO: 40) resulting from the introduction of all of S239D, A330L, and I332E into GpH7-A5; GpH7-B78 (SEQ ID NO: 41) resulting from the introduction of all of S239D, A330L, and I332E into GpH7-B3; GpH7-TA7 (SEQ ID NO: 31) resulting from the introduction of all of L234Y, G236W, and S298A into GpH7-A5; and GpH7-TA45 (SEQ ID NO: 32) resulting from the introduction of all of L234Y, G236W, and S298A into GpH7-B3. […] The prepared antibodies were compared for the FcγRIIIa-binding activity using, as an indicator, KD for FcγRIIIa that was determined according to the method described in Reference Example 2.
as §1

[3] = biological target: T2, FcgRIIIa F extracellular domain with C-terminal His tag (human, UniProt P08637 17-208); experiment: ratio of SPR (Biacore) KDs, FcγRIIb as reference
T2 construct: extracellular domain; also called FcγRIIIa F; FcγRIIIa (F158); not shown: His tag attached to the C terminus
T2 sequence (P08637 17-208): as above
Description: (§3) The prepared antibodies were assayed as to the KDs for FcγRIIIa and FcγRIIb according to the method described in Reference Example 2.
as §1, §2

[4] = biological target: T3, FcgRIIb extracellular domain with C-terminal His tag (human, UniProt P31994 43-217); experiment: SPR (Biacore T100), antibody captured on antigen peptide chip, FcγR extracellular domain as analyte, kinetic analysis
T3 construct: extracellular domain; also called FcγRIIb; not shown: His tag attached to the C terminus
T3 sequence (looked up): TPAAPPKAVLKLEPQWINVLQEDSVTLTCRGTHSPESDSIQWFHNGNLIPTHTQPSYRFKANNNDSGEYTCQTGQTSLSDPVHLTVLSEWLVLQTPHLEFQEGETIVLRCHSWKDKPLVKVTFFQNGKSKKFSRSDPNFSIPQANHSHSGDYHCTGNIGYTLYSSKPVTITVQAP
Description: as §3, §1, §2

[5] = biological target: T2, FcgRIIIa F extracellular domain with …; experiment: as above
Description: as §3, §1, §2

[6] = biological target: T4, FcgRIIa R extracellular domain with C-terminal His tag (human, UniProt P12318 34-217); experiment: SPR (Biacore) KD ratio against the template H240-Kn061/H240-Hl071/L73-k0
T4 construct: extracellular domain; also called FcγRIIa R; FcγRIIa type R; not shown: His tag attached to the C terminus
T4 sequence (looked up): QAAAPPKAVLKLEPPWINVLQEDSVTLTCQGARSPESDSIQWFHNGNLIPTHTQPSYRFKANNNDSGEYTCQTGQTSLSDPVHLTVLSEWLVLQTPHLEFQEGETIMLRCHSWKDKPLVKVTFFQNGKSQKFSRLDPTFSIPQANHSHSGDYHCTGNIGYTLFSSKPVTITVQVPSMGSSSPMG
Description: (§4) The antibodies were assessed for the binding to each FcgR. […] The resultant value was defined as relative KD, and used as an assessment indicator.
(§5) Analysis of interaction between obj ective antibody and the FcγR was carried out using Biacore T100 (GE Healthcare), Biacore T200, Biacore A100, and Biacore 4000. HBS-EP+ (GE Healthcare) was used as the running buffer, and the measurement temperature was set to 25° C. Chips produced by immobilizing the antigen peptide by the amine coupling method to a Series S sensor Chip CM5 (GE Healthcare), chips produced by allowing preliminarily biotinylated antigen peptides to interact with and immobilize onto a Series S Sensor Chip SA (certified) (GE Healthcare), chips produced by immobilizing Protein L (ACTIGEN, BioVision) to Series S Sencor Chip CM5 (GE Healthcare), or chips produced by immobilizing Protein A/G (Thermo Scientific) to Series S Sencor Chip CM5 (GE Healthcare) were used. Antibodies of interest were captured onto these chips, and allowed to interact to each FcγR diluted with running buffer.

[7] = biological target: T5, FcgRIIa H extracellular domain with C-terminal His tag (human, UniProt P12318 34-217); experiment: as above
T5 construct: extracellular domain; also called FcγRIIa H; FcγRIIa type H; not shown: His tag attached to the C terminus
T5 sequence (looked up): T4 sequence (looked up) with R134H
Description: as §4, §5

[8] = biological target: T6, FcgRIIIa V extracellular domain with C-terminal His tag (human, UniProt P08637 17-208); experiment: as above
T6 construct: extracellular domain; also called FcγRIIIa V; FcγRIIIa (V158); not shown: His tag attached to the C terminus
T6 sequence (P08637 17-208 F176V): as the sequence (P08637 17-208) above, with F160V counted along it
Description: as §4, §5

[9] = biological target: T3, FcgRIIb extracellular domain with …; experiment: as above
Description: as §4, §5

[10] = biological target: T2, FcgRIIIa F extracellular domain with …; experiment: as above
Description: as §4, §5

B1: GpH7-G1d/GpL16-k0 (antibody, human IgG1, kappa)
heavy: not shown
light: DIVMTQSPLSLPVTPGEPASISCQASESLVHSNRNTYLHWYLQKPGQSPQLLIYKVSNRFSGVPDRFSGSGSGTDFTLKISRVEAEDVGVYYCSQNTHVPPTFGQGTKVEIERTVAAPSVFIFPPSDEQLKSGTASVVCLLNNFYPREAKVQWKVDNALQSGNSQESVTEQDSKDSTYSLSSTLTLSKADYEKHKVYACEVTHQGLSSPVTKSFNRGEC
notes: Anti-glypican-3 native-type human IgG1 control; also called native IgG1
Kd [1]: 1200 nM
KD ratio 1 (KD of GpH7-G1d/GpL16-k0 divided by KD of the antibody) [2]: 1 fold

B2: GpH7-A5/GpH7-B3/GpL16-k0 (antibody, human IgG1, kappa)
heavy 1: not shown
heavy 2: not shown
light: B1 light
notes: also called A5/B3; HeCon Ab
FcγRIIIa F/FcγRIIb ratio (KD for FcγRIIb / KD for FcγRIIIa F) [3]: 1.9
Kd [4]: 3100 nM
Kd [5]: 1600 nM

B6: GpH7-TA7/GpH7-TA45/GpL16-k0 (antibody, human IgG1, kappa)
heavy 1: QVQLVQSGAEVKKPGASVTVSCKASGYTFTDYEMHWIRQPPGEGLEWIGAIDPKTGDTAYSESFQDRVTLTADKSTSTAYMELSSLTSEDTAVYYCTRFYSYTYWGQGTLVTVSSASTKGPSVFPLAPSSKSTSGGTAALGCLVKDYFPEPVTVSWNSGALTSGVHTFPAVLQSSGLYSLSSVVTVPSSSLGTQTYICNVNHKPSNTKVDKKVEPKSCDKTHTCPPCPAPEYLWGPSVFLFPPKPKDTLMISRTPEVTCVVVDVSHEDPEVKFNWYVDGVEVHNAKTKPREEQYNATYRVVSVLTVLHQDWLNGKEYKCKVSNKALPAPIEKTISKAKGQPREPQVYTLPPSRKELTKNQVSLTCLVKGFYPSDIAVEWESNGQPENNYKTTPPVLDSDGSFFLYSKLTVDKSRWQQGNVFSCSVMHEALHNRYTQKSLSLSP
heavy 2: B6 heavy 1 with K354D, R433H, K437E
light: B1 light
notes: L234Y/G236W/S298A in both H chains (called homodimerized); also called TA7/TA45
FcγRIIIa F/FcγRIIb ratio (KD for FcγRIIb / KD for FcγRIIIa F) [3]: 5.3
Kd [4]: 18000 nM
Kd [5]: 3300 nM

B9: H240-Kn061/H240-Hl071/L73-k0 variant with F241L introduced into H240-Hl071 (antibody, human IgG1, kappa)
heavy 1: QDQLVQSGAEVKKPGASVKVSCKASGFNIKDTYIQWVRQAPGQGLEWMGRIDPLRKQTKYREKFEGRVTITADTSTNTAYMELSSLRSEDTAVYYCVRSGREFDYWGQGTLVTVSSASTKGPSVFPLAPSSKSTSGGTAALGCLVKDYFPEPVTVSWNSGALTSGVHTFPAVLQSSGLYSLSSVVTVPSSSLGTQTYICNVNHKPSNTKVDKKVEPKSCDKTHTCPPCPAPEYYWGPSVFLFPPKPKDTLMISRTPEVTCVVVDVSDEDPEVKFNWYVDGVEVHNAKTKPREEQYNATYRVVSVLTVLHQDWLNGKEYKCKVSNKALPAPIEKTISKAKGQPREPQVCTLPPSRDELTKNQVSLWCLVKGFYPSDIAVEWESNGQPENNYKTTPPVLDSDGSFFLYSKLTVDKSRWQQGNVFSCSVMHEALHNHYTQKSLSLSP
heavy 2: QDQLVQSGAEVKKPGASVKVSCKASGFNIKDTYIQWVRQAPGQGLEWMGRIDPLRKQTKYREKFEGRVTITADTSTNTAYMELSSLRSEDTAVYYCVRSGREFDYWGQGTLVTVSSASTKGPSVFPLAPSSKSTSGGTAALGCLVKDYFPEPVTVSWNSGALTSGVHTFPAVLQSSGLYSLSSVVTVPSSSLGTQTYICNVNHKPSNTKVDKKVEPKSCDKTHTCPPCPAPELLGGPSVLLFPPKPKDTLMISRTPEVTCVVVDVSHEDPEVKFNWYVDGVEVHNAKTKPREEQYNSTYRVVSVLTVLHQDWLNGKEYKCKVSNDALPMPIEETISKAKGQPREPQVYTLPPSRCELTKNQVSLSCAVKGFYPSDIAVEWESNGQPENNYKTTPPVLDSDGSFFLVSKLTVDKSRWQQGNVFSCSVMHEALHNHYTQKSLSLSP
light: DIQMTQSPSSLSASVGDRVTITCRASQDIHKYIAWYQQKPGQAPRLLIQYTSTLQPGVPSRFSGSGSGTDYTFTISSLQPEDIATYYCLQYEQLRTFGGGTKVEIKRTVAAPSVFIFPPSDEQLKSGTASVVCLLNNFYPREAKVQWKVDNALQSGNSQESVTEQDSKDSTYSLSSTLTLSKADYEKHKVYACEVTHQGLSSPVTKSFNRGEC
notes: Point variant made with H240-Kn061/H240-Hl071/L73-k0 as template; position by EU numbering; also called H240-Hl071 F241L
relative KD (KD of H240-Kn061/H240-Hl071/L73-k0 / KD of variant) [6]: 1.2
relative KD (KD of H240-Kn061/H240-Hl071/L73-k0 / KD of variant) [7]: 1.2
relative KD (KD of H240-Kn061/H240-Hl071/L73-k0 / KD of variant) [8]: 1.3
relative KD (KD of H240-Kn061/H240-Hl071/L73-k0 / KD of variant) [9]: 0.8
relative KD (KD of H240-Kn061/H240-Hl071/L73-k0 / KD of variant) [10]: 1.3

The remaining binders from weak to strong by Kd [4], led by results:

FcγRIIIa F/FcγRIIb ratio (KD for FcγRIIb / KD for FcγRIIIa F) [3]: 14
Kd [4]: 4500 nM
Kd [5]: 320 nM
B4: GpH7-TA7/GpH7-B3/GpL16-k0 (antibody, human IgG1, kappa)
heavy 1: B6 heavy 1
heavy 2: not shown
light: B1 light
notes: L234Y/G236W/S298A in one H chain only; also called TA7/B3

FcγRIIIa F/FcγRIIb ratio (KD for FcγRIIb / KD for FcγRIIIa F) [3]: 2.5
Kd [4]: 3100 nM
Kd [5]: 1200 nM
B3: GpH7-G1d/GpL16-k0 (antibody, human IgG1, kappa)
heavy: not shown
light: B1 light
notes: Anti-glypican-3 IgG1 lacking the C-terminal Gly and Lys; also called native IgG1

FcγRIIIa F/FcγRIIb ratio (KD for FcγRIIb / KD for FcγRIIIa F) [3]: 244
Kd [4]: 1100 nM
Kd [5]: 4.7 nM
B8: GpH7-TA7/GpH7-B78/GpL16-k0 (antibody, human IgG1, kappa)
heavy 1: B6 heavy 1
heavy 2: B6 heavy 1 with Y232L, W234G, S237D, A296S, A328L, I330E, K354D, R433H, K437E
light: B1 light
notes: L234Y/G236W/S298A in one H chain, S239D/A330L/I332E in the other; also called TA7/B78

FcγRIIIa F/FcγRIIb ratio (KD for FcγRIIb / KD for FcγRIIIa F) [3]: 100
Kd [4]: 610 nM
Kd [5]: 6.2 nM
B7: GpH7-A57/GpH7-B78/GpL16-k0 (antibody, human IgG1, kappa)
heavy 1: B6 heavy 1 with Y232L, W234G, S237D, A296S, A328L, I330E
heavy 2: B6 heavy 1 with Y232L, W234G, S237D, A296S, A328L, I330E, K354D, R433H, K437E
light: B1 light
notes: S239D/A330L/I332E in both H chains (called homodimerized); also called A57/B78

FcγRIIIa F/FcγRIIb ratio (KD for FcγRIIb / KD for FcγRIIIa F) [3]: 7.9
Kd [4]: 430 nM
Kd [5]: 54 nM
B5: GpH7-A5/GpH7-B78/GpL16-k0 (antibody, human IgG1, kappa)
heavy 1: not shown
heavy 2: B6 heavy 1 with Y232L, W234G, S237D, A296S, A328L, I330E, K354D, R433H, K437E
light: B1 light
notes: S239D/A330L/I332E in one H chain only; also called A5/B78
